Laboratory results as given in publication PMC4947014.
Residue numbers refer to the chain shown, from its start. Names may count otherwise. Values belong to the binder of their own block, whether it stands above or below them.

Tests used:
[1] = target: Im7 L18AL19AL37AH40W (E. coli)
[2] = target: Im7 L18AL19AL37AH40W (E. coli); experiment: stopped-flow fluorescence
Im7, wild type (E. coli) = experiment: stopped-flow fluorescence

stoichiometry N [1]: 1 | kon [2]: 1.2e+08 M⁻¹ s⁻¹ | kobs of release of native Im7 (double mixing, chase after 6 ms) (Im7, wild type (E. coli)): 141 s⁻¹ | koff (Im7, wild type (E. coli)): 131 s⁻¹
B1: Spy, wild type (natural protein)
chain: ADTTTAAPADAKPMMHHKGKFGPHQDMMFKDLNLTDAQKQQIREIMKGQRDQMKRPPLEERRAMHDIIASDTFDKVKAEAQIAKMEEQRKANMLAHMETQNKIYNILTPEQKKQFNANFEKRLTERPAAKGKMPATAE

fold increase in affinity (Kd) over SpyWT [2]: 150 fold | fold lower release rate constant (koff) than SpyWT [2]: 130 fold
B2: Spy Q100L (natural protein)
chain: B1 chain with Q100L

fold increase in affinity (Kd) over SpyWT [2]: 7 fold | fold lower release rate constant (koff) than SpyWT [2]: 5 fold
B3: Spy H96L (natural protein)
chain: B1 chain with H96L
